Results as given in patent US20210340516A1, “COMPOSITIONS CONTAINING ARGINASE 1 FOR THE TREATMENT OF NEUROVASCULAR AND RETINAL VASCULAR DISORDERS” (Augusta University Research Institute, Inc., priority 2020, published 2021).

Tests used:
[1] = tested on: C57BL/6J mice subjected to middle cerebral artery occlusion (MCAO); assay: MCAO stroke model: infarct size (TTC) and Bederson score; type: in vivo, mouse; conditions: 60 minutes MCAO, 24 hours
Description: MCAO model: C57BL/6J mice (12-16 week-old male, 25-30 g) were subjected to middle cerebral artery occlusion (MCAO) using the intraluminal filament technique (Docol 602145) for 60-minutes followed by reperfusion as described in Eldahshan, et al., American Journal of Physiology Heart and Circulatory Physiology, 316:H1192-h201 (2019). […] A heating pad was used to maintain body temperature at 37° C. […] Sham surgery involved all the regular surgery steps except the filament insertion. Mice were deeply anesthetized at 24 hours and sacrificed by trans-cardial perfusion with PBS then brains were collected and sectioned for triphenyl tetrazolium chloride (TTC) staining or homogenized in RIPA lysis buffer for western blotting. […]
The stroke experiment involved behavioral scoring and manual quantification of the infarct size, and was conducted in a blinded fashion following the STAIR criteria. […]
Infarct size analysis: Brain infarct size was determined based on TTC staining of brain sections as described in Eldahshan, et al., American Journal of Physiology Heart and Circulatory Physiology, 316:H1192-h201 (2019). Images of TTC-stained sections were analyzed in a blinded fashion using ImageJ software [National Institutes of Health (NIH)], and the infarct size was calculated with edema correction using the following formula: 100×[nonstroked−(stroked−infarct)]/nonstroked. […]

[2] = tested on: primary rat retinal mixed neurons; assay: Primary retinal mixed neurons subjected to OGD/R, LDH release assay; conditions: 6 hours OGD and 18 hours reperfusion, PEG-A1 1 μg/mL at reoxygenation
Description: Retinas from ten pups were collected and washed twice with ice-cold 1×PBS. They were digested with 0.5% trypsin for 3-4 min at 37° C., followed by trypsin inactivation with the culture medium, DMEM/F12 (Gibco, Grand Island, N.Y.) plus 10% FBS and 1% Penicillin-Streptomycin (P/S) solution (Invitrogen, Grand Island, N.Y.). The retina tissue was mechanically dissociated by pipetting several times until cells were dispersed. Cells were then filtered through a 40 μm nylon-mesh filter, collected by centrifugation at 1000 rpm for 10 min, re-suspended in culture medium, and plated in 6 or 12 well-cell culture plates (Corning, Corning, N.Y.) coated with Poly-D-lysine hydrobromide (PDL, Sigma) at a density of 0.5×10^6 cells/mL. The plates were maintained in a humidified CO2 incubator at 37° C. and 5% CO2. At days 1, 2, and 3 in vitro (DIV), half of the medium was aspirated and replaced with Neurobasal A medium containing 1×B-27 (GIBCO), 1× glutaMAX (GIBCO) and 1% P/S. Experiments were conducted at DIV 6.

[3] = tested on: bone marrow-derived macrophages (BMDMs); assay: PEG-A1 intracellular uptake by bone marrow-derived macrophages (anti-PEG Western blot); type: cell-based, mouse; conditions: BMDMs treated overnight, washed with PBS
Description: BMDMs: Bone marrow-derived macrophages (BMDMs) were freshly isolated from WT mice and differentiated in culture as described in Fouda, A Y, et al., Cell death & Disease, 9:1001 (2018). To determine PEG-A1 intracellular uptake by macrophages, BMDMs were treated overnight with PEG-A1 or vehicle and then washed several times with phosphate buffered saline (PBS) before collection in RIPA buffer for Western blotting.
Previous studies have shown that myeloid specific A1 deletion using the LysM cre mice leads to increased neurodegeneration in the retinal IR model (Fouda, A Y, et al., Cell death & Disease, 9:1001 (2018)). […] To test the effect of possible neuronal A1 deletion on the previously reported IR outcome in these mice, control and myeloid-specific A1 KO retina explants were subjected to OGD/R (3 hours/21 hours) (FIG. 21A). The explant model excludes any effects due to infiltrating myeloid cells. […] To further test if macrophage can incorporate PEG-A1, BMDMs were treated with PEG-A1 or vehicle overnight and then washed with PBS several times before Western blotting.

[4] = tested on: WT C57BL/6J mice subjected to retinal ischemia-reperfusion (IR) injury; assay: Retinal ischemia-reperfusion (IR) injury: neuronal survival by NeuN labeling of retinal flat-mounts; type: in vivo, mouse; conditions: 25 mg/kg i.p. at 3 hours and day 4, 7 days post-injury; vehicle group 40%
Description: Mouse retinal ischemia-reperfusion (IR) injury and traumatic optic neuropathy (TON) models: All experiments were performed in accordance with the ARVO Statement for the Use of Animals in Ophthalmic and Vision Research and were approved by the institutional animal care and use committee (Animal Welfare Assurance no. D16-00197). Wild-type (WT) C57BL/6J mice (10-12 weeks old) were anesthetized using ketamine/xylazine mixture then subjected to retinal ischemia-reperfusion (IR) injury or optic nerve crush (ONC) to model traumatic optic neuropathy (TON) as described in Shosha, et al., Cell death & disease, 7:e2483-e (2016) and Xu, et al., Frontiers in Neuroscience, 12:970 (2018). […]
Evaluation of retinal neurodegeneration: Retina flat-mounts and explants were immunolabeled for the neuronal marker, NeuN (Millipore), as previously described in Shosha, et al., Cell death & disease, 7:e2483-e (2016). Images were collected and analyzed in a blinded fashion using a semi-automated method. […] NeuN-positive cells were quantified using ImageJ software ‘Batch processing’ function. […] The macro was validated every time it was used to make sure it is compatible with the set of images being analyzed. […]

B1: PEG-A1: recombinant human arginase (rhArg) covalently attached to methoxy polyethylene glycol (mPEG-SPA; MW 5,000) via succinamide propionic acid (SPA) linker (protein, UniProt P05089 1-322, looked up)
Arginase-1: MSAKSRTIGIIGAPFSKGQPRGGVEEGPTVLRKAGLLEKLKEQECDVKDYGDLPFADIPNDSPFQIVKNPRSVGKASEQLAGKVAEVKKNGRISLVLGGDHSLAIGSISGHARVHPDLGVIWVDAHTDINTPLTTTSGNLHGQPVSFLLKELKGKIPDVPGFSWVTPCISAKDIVYIGLRDVDPGEHYILKTLGIKYFSMTEVDRLGIGKVMEETLSYLLGRKKRPIHLSFDVDGLDPSFTPATGTPVVGGLTYREGLYITEEIYKTGLLSGLDIMEVNPSLGKTPEEVTRTVNTAVAITLACFGLAREGNHKPIDYLNPPK
modifications: mPEG-SPA 5 kDa conjugate
notes: recombinant human arginase (rhArg) covalently attached to methoxy polyethylene glycol (mPEG-SPA; MW 5,000) via succinamide propionic acid (SPA) linker
For B1, the Bederson score [1] was “trend towards improved Bederson score that did not reach statistical significance”, the “infarct size (TTC, percent of contralesional hemisphere)” value ([1]; vehicle 41%) was 34% and the “cell death (LDH release)” value [2] was “increased cell death”. For the same molecule, the “anti-PEG band in macrophage cell lysate (intracellular uptake)” value [3] was “strong band” and the “neuronal survival after retinal IR (NeuN, % of sham retina)” value [4] was 62%.
